One block for each binder: values may come before it.
Legend:
[1] = biological target: HLA-A2 presenting TdT peptide-1 (…) on target cells (human); assay: cell-based or functional assay
[2] = biological target: HLA-A2 presenting TdT peptide-3 (…) on target cells (human); assay: cell-based or functional assay
[3] = biological target: T1, human terminal deoxynucleotidyl transferase (TdT) peptide on HLA-A*02:01 (human); assay: multimer staining
T1 peptide: ALYDKTKRI

[4] = biological target: T2, human terminal deoxynucleotidyl transferase (TdT) peptide on HLA-A*02:01 (human); assay: multimer staining
T2 peptide: ALYDKTKRIFL

[5] = biological target: T1, human terminal deoxynucleotidyl …; assay: cytokine release

B1: T1 TCR (TCR, V domains shown)
V domain 1: EDQVTQSPEALRLQEGESSSLNCSYTVSGLRGLFWYRQDPGKGPEFLFTLYSAGEEKEKERLKATLTKKESFLHITAPKPEDSATYLCAVQASSNSGYALNFGKGTSLLVTP
V domain 2: SAVISQKPSRDICQRGTSLTIQCQVDSQVTMMFWYRQQPGQSLTLIATANQGSEATYESGFVIDKFPISRPNLTFSTLTVSNMSPEDSSIYLCSVEPGYADTQYFGPGTRLTVLE
EC50 of activation of T1 cells following co-incubation with peptide-pulsed T2 lymphoblast cells [1]: 5.8 nM

B2: T3 TCR (TCR, V domains shown)
V domain 1: SQQGEEDPQALSIQEGENATMNCSYKTSINNLQWYRQNSGRGLVHLILIRSNEREKHSGRLRVTLDTSKKSSSLLITASRAADTASYFCATDAGAYSGGGADGLTFGKGTHLIIQP
V domain 2: EAQVTQNPRYLITVTGKKLTVTCSQNMNHEYMSWYRQDPGLGLRQIYYSMNVEVTDKGDVPEGYKVSRKEKRNFPLILESPSPNQTSLYFCASSLSSSYNEQFFGPGTRLTVLE
EC50 of activation of T3 cells following co-incubation with peptide-pulsed T2 lymphoblast cells [2]: 1.2 nM

The remaining lines, values ahead:

binding result [3]: recognises
B3: T1 TCR (TCR, V domains shown)
Valpha: B1 V domain 1
Vbeta: SAVISQKPSRDICQRGTSLTIQCQVDSQVTMMFWYRQQPGQSLTLIATANQGSEATYESGFVIDKFPISRPNLTFSTLTVSNMSPEDSSIYLCSVEPGYADTQYFGPGTRLTVL

binding result [4]: recognises
binding result [5]: no recognition
B4: T3 TCR (TCR, V domains shown)
Valpha: B2 V domain 1
Vbeta: EAQVTQNPRYLITVTGKKLTVTCSQNMNHEYMSWYRQDPGLGLRQIYYSMNVEVTDKGDVPEGYKVSRKEKRNFPLILESPSPNQTSLYFCASSLSSSYNEQFFGPGTRLTVL

Source: patent US20250170175A1 (OSLO UNIVERSITETSSYKEHUS HF, published 2025)
